Laboratory results reported in US20050063973A1 (URIFER, published 2005).

Target: T1, TMF/ARA160 (endogenous protein of C2C12, NIH3T3 and T127 cells) (UniProt B9EKI3 1-1091)
T1 construct: Endogenous protein, immunoprecipitated from whole cell extracts or stained in fixed cells; also called Gate-Keeper; GK
T1 sequence (looked up): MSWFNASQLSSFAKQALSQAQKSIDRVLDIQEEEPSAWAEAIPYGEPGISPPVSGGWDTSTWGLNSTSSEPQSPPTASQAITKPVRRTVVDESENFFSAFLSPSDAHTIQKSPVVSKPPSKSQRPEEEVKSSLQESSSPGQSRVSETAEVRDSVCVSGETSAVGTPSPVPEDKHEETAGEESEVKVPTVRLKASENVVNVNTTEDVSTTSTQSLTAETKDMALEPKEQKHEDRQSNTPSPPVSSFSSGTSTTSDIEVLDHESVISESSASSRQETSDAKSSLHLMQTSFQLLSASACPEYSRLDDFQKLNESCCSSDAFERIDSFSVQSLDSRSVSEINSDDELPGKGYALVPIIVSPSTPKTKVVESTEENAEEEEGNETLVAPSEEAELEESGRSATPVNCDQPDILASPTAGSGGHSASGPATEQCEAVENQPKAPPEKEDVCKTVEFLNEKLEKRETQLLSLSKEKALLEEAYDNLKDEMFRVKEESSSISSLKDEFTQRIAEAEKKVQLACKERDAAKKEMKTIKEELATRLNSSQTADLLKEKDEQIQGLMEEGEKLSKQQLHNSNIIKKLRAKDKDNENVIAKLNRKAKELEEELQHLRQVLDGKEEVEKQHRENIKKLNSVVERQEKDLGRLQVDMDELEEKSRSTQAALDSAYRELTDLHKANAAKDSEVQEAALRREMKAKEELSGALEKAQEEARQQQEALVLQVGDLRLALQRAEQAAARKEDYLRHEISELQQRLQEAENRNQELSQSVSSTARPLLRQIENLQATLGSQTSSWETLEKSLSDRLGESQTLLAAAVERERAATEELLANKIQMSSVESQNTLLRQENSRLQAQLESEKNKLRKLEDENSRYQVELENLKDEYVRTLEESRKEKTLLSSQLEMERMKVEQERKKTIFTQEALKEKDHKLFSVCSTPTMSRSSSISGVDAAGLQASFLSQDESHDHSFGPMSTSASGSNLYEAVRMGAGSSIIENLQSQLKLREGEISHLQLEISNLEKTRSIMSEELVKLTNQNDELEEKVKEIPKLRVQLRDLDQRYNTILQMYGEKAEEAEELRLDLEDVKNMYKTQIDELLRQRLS
Assay: co-immunoprecipitation with αTMF/ARA160 from C2C12 extracts, Western blot with αStat1
Source text: FIG. 6 is an immunoprecipitation showing that TMF/ARA160 associates with cyclin D1 and Stat3 but not with Stat1, in serum starved C2C12 cells. […] Whole cell extracts from actively growing (lanes 1 and 5) or serum-starved cells (lanes 2-4 and 6-8) which were either untreated (lanes 1-4) or treated with MG132 (lanes 5-8), were resolved by 7% SDS-PAGE and exposed to αStat3 (upper panel); αcyclin D1 (middle panel); or αStat1 antibodies (lower panel), in a Western-blot analysis. […] TMF/ARA160 was immunoprecipitated from the extracts described in A. Precipitates were resolved by 7% SDS-PAGE and were reacted with αStat3 (upper panel); αStat1 (middle panel); or αcyclin D1 antibodies (lower panel), in a Western-blot analysis.

binding result: no binding
B1: Stat1 (endogenous protein of C2C12 cells) (other, UniProt P42225 2-749, looked up)
chain: SQWFELQQLDSKFLEQVHQLYDDSFPMEIRQYLAQWLEKQDWEHAAYDVSFATIRFHDLLSQLDDQYSRFSLENNFLLQHNIRKSKRNLQDNFQEDPVQMSMIIYNCLKEERKILENAQRFNQAQEGNIQNTVMLDKQKELDSKVRNVKDQVMCIEQEIKTLEELQDEYDFKCKTSQNREGEANGVAKSDQKQEQLLLHKMFLMLDNKRKEIIHKIRELLNSIELTQNTLINDELVEWKRRQQSACIGGPPNACLDQLQTWFTIVAETLQQIRQQLKKLEELEQKFTYEPDPITKNKQVLSDRTFLLFQQLIQSSFVVERQPCMPTHPQRPLVLKTGVQFTVKSRLLVKLQESNLLTKVKCHFDKDVNEKNTVKGFRKFNILGTHTKVMNMEESTNGSLAAELRHLQLKEQKNAGNRTNEGPLIVTEELHSLSFETQLCQPGLVIDLETTSLPVVVISNVSQLPSGWASILWYNMLVTEPRNLSFFLNPPCAWWSQLSEVLSWQFSSVTKRGLNADQLSMLGEKLLGPNAGPDGLIPWTRFCKENINDKNFSFWPWIDTILELIKNDLLCLWNDGCIMGFISKERERALLKDQQPGTFLLRFSESSREGAITFTWVERSQNGGEPDFHAVEPYTKKELSAVTFPDIIRNYKVMAAENIPENPLKYLYPNIDKDHAFGKYYSRPKEAPEPMELDDPKRTGYIKTELISVSEVHPSRLQTTDNLLPMSPEEFDEMSRIVGPEFDSMMSTV
